The target in assay [1] is K18 tau construct (K18-C291A/C322A/I260C), labelled with AlexaFluor-488 or AlexaFluor-647. Kind of assay: FRET or BRET; single-molecule FRET of oligomers during aggregation: equimolar A488- and A647-labelled construct, 10 uM in all, 50 mM ammonium acetate pH 7.0, 37 °C, undisturbed, heparin (MW 3000) at 1:4 molar ratio; aliquots diluted 50,000-fold into the same buffer with 0.1 mg/ml BSA and 2.5 uM heparin, measured under flow in a microfluidic channel; bursts in the acceptor channel counted as oligomers. In general terms: In BRET a luciferase serves as donor, and the signal depends on an acceptor being close.

The target is the same in assay [2]. Briefly: FRET or BRET; single-molecule FRET of species released from washed A488/A647-K18 filaments: pellet washed four times, fresh 50 mM ammonium acetate pH 7.0 added; aliquots diluted into the same buffer and measured on BSA-treated slides, no flow.
The target in assay [3] is K18-P301L, labelled with AlexaFluor-488 or AlexaFluor-647. Briefly: FRET or BRET; single-molecule FRET of oligomers during aggregation: equimolar A488- and A647-labelled construct, 10 uM in all, 50 mM ammonium acetate pH 7.0, 37 °C, undisturbed, heparin (MW 3000) at 1:4 molar ratio; aliquots diluted 50,000-fold into the same buffer with 0.1 mg/ml BSA and 2.5 uM heparin, measured under flow in a microfluidic channel; bursts in the acceptor channel counted as oligomers.

In assay [4] the target is K18-ΔK280, labelled with AlexaFluor-488 or AlexaFluor-647. Described as above.

“And” between values parts separate entries of the source, which are not always exact repeats. Identical values can stand only once.

For the substance “K18 tau construct (K18-C291A/C322A/I260C), labelled with AlexaFluor-488 or AlexaFluor-647 (domain or fragment)”, in assay [1], the oligomer concentration (typical) stood at 5 nM and the percent of detected soluble species that are oligomers (after 0.5 h) came out at 0.1%. For the same substance, the percent of soluble tau that is oligomeric (immediately after dilution of filaments) in assay [2] was in the range of 0.6 to 3%.
On to “K18-P301L, labelled with AlexaFluor-488 or AlexaFluor-647 (domain or fragment)”, for which the peak oligomer concentration relative to K18-wt in assay [3] is 4 fold and 3 fold.
As for “K18-ΔK280, labelled with AlexaFluor-488 or AlexaFluor-647 (domain or fragment)”, in assay [4], the fold more oligomers at peak than for K18 was determined as 50 fold and the percent of detected species that are oligomers (at peak, 0.5 h) worked out at 4%.

Source of the values: PMC4421837.
